{"source": "the nanobody polyreactivity screen of Harvey et al. (2022)", "data": [{"assay": "yeast display, Sf9 membrane polyspecificity reagent, FACS + sequencing; frameworks hold sequencing errors", "in_short": "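Nanobodies from a synthetic yeast display library (Saccharomyces cerevisiae BJ5465), induced 36–48 hours with galactose, were stained 1 hour at 4 °C with 10% biotinylated, detergent-solubilized Sf9 membrane reagent, enriched on streptavidin microbeads, then FACS-sorted. Anti-HA (expression) and streptavidin (reagent binding) fluorescence set low and high (top ~1%) gates. Polyreactivity labels come from the gate of origin. Genes were colony-PCR amplified, MiSeq 2 × 250 sequenced and filtered by CDR length.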", "values": [{"sequence": "QVQLVESGGGLVQAGGSLRLSCAASGLTFGDYALGWYRQAPGKDRELVAVISRSGGSTYYADSVKGRFTISRDNAKNTVYLQMNSLKPEDTAVYYCAAEYYSYRYDGDYWGQGTQVTVSS", "polyreactivity (PSR sort gate)": "low polyreactivity"}, {"sequence": "QVQLVESGGGLVQAGGSLRLSCAASGLTFGDYVMGWYRQAPGKERELVATITSDGGTTYADSVKGRFTISRDNAKNTVYLQMNSLKPEDTAVYYCAAGVTGPSDDYDYWGQGTQVTVSS", "polyreactivity (PSR sort gate)": "low polyreactivity"}, {"sequence": "QVQLVESGGGLVQAGGSLRLSCAASGLTFGGNAMGWYRQAPGKERELVAAISWSDDTTDYADSVKGRFTISRDNGKYTVYLQMNSLKPEDTAVYYCAARLPFEHVDYWGQGTQVTVSS", "polyreactivity (PSR sort gate)": "low polyreactivity"}, {"sequence": "QVQLVESGGGLVQAGGSLRLSCAASGLTFGHYAMGWYRPAPGKERELVAAITSGGRTYYADSVKGRFTISRDNAKYTVYLQMNSLKPEDTAVYYCATRGPRYRYYYWGQGTQVTVSS", "polyreactivity (PSR sort gate)": "high polyreactivity"}, {"sequence": "QVQLVESGGGLVQAGGSLRLSCAASGLTFGIYAMGWYRQAPGKERELVATISWRGGSTYYADSVKGRFTISRDNAKNTVYLQMNSLKPEDTAVYYCNADNEYRLGYWDDSCGQGTQVTVSS", "polyreactivity (PSR sort gate)": "low polyreactivity"}, {"sequence": "QVQLVESGGGLVQAGGSLRLSCAASGLTFGLNALGWYRQAPGKERELVAAITWSGGSTYYADSVKGRFTISRDNAKNTVYLQMNSLKPEDTAVYYCATDNWSVNGGYNYWGQGTQVTVSS", "polyreactivity (PSR sort gate)": "low polyreactivity"}, {"sequence": "QVQLVESGGGLVQAGGSLRLSCAASGLTFGLNAMGWYRQAPGKEREVVAAITWSGGSTYYADSVKGRFTISRDNAKNTVYLQMNSLKPEDTAVYYCATDNWSVNGGYNYWGQGTHVTVSS", "polyreactivity (PSR sort gate)": "low polyreactivity"}, {"sequence": "QVQLVESGGGLVQAGGSLRLSCAASGLTFGLNAMGWYSQAPGKERELVAAITWSGGSTYYADSVKGRFTISRDNAKNTVYLQMNSLKPEDTAVYYCATDNLSVNGGYNYWGQGTQVTVSS", "polyreactivity (PSR sort gate)": "low polyreactivity"}, {"sequence": "QVQLVESGGGLVQAGGSLRLSCAASGLTFGPYAMGWYRQAPGKERELVAAITSGGNTNYADSVKGRFTISRDNAKNTVYLQMNSLKPEDTAVYYCATSYYLAYRSITPYDYWGQGTQVTVSS", "polyreactivity (PSR sort gate)": "low polyreactivity"}, {"sequence": "QVQLVESGGGLVQAGGSLRLSCAASGLTFGSYAMGWYRQAPGKERELVAAISRSGGSTYYADSVMGRFTISRDNAKNTVYLQMNSLKPEDTAVYYCNAVNRYYAPTDRRVGYDYWGQGTQVTVSS", "polyreactivity (PSR sort gate)": "high polyreactivity"}, {"sequence": "QVQLVESGGGLVQAGGSLRLSCAASGLTFGSYAMGWYRQAPGKERELVAAISSRGGTTYYADSVKGRFTISRDNAKNTVYLQMNSLKPEDTAVYYCAARSRRYSYDNLGHWGQGTQVTVSS", "polyreactivity (PSR sort gate)": "high polyreactivity"}, {"sequence": "QVQLVESGGGLVQAGGSLRLSCAASGLTFGTNAMGWYRQAPGKERELVAAISTSSGSTYYADSVKGRFTISRDNAKNTVYLQMNSLKPEDTAVYYCAAVTVTKMSYYRYYYWGQGTQVTVSS", "polyreactivity (PSR sort gate)": "low polyreactivity"}, {"sequence": "QVQLVESGGGLVQAGGSLRLSCAASGLTFGYYVMGWYRQAPGKERELVADINFSGGSTYYADSVKGRFTISRDNAKNTVYLQMNSLKPEDTAVYYCNGVVYRFTVSTGYESWGQGTQVTVSS", "polyreactivity (PSR sort gate)": "low polyreactivity"}, {"sequence": "QVQLVESGGGLVQAGGSLRLSCAASGLTFHDYAMGWYIQAHVKERELVAGINSGGSTNYADSVKGRFTISRDNAKNTVYLQMNSLKPEDTAVYYCARGPQYDEGEYWGQCTQVTVSS", "polyreactivity (PSR sort gate)": "low polyreactivity"}, {"sequence": "QVQLVESGGGLVQAGGSLRLSCAASGLTFHRYAMGWYRQAPGKERELVADISSGDSTNYADSVKGRFTISRDNAKNTVYLQMTSLKPEDTAVYYCNTDGYIYRYRFDYWGQGTQVTVSS", "polyreactivity (PSR sort gate)": "low polyreactivity"}, {"sequence": "QVQLVESGGGLVQAGGSLRLSCAASGLTFHYYAMGWYRQAPGKERELVAVISSGGSTYYADSVKGRFTISRDNAKNTVYLQMNSLKPEDTAVYYCAKLSLSWDGYYQYDYRGQGTQVTVSS", "polyreactivity (PSR sort gate)": "low polyreactivity"}, {"sequence": "QVQLVESGGGLVQAGGSLRLSCAASGLTFIPNAMGWYRQAPGKERELVAAISGTGGSTYYADSVKGRFTISRDNAKNTVYLQMNSLKPEDTAVFYCAARAYLGYYSWGQGTQVTVSS", "polyreactivity (PSR sort gate)": "high polyreactivity"}, {"sequence": "QVQLVESGGGLVQAGGSLRLSCAASGLTFIRYAMGWYRQAPGKERELVASISRGGSTYYADSVKGRVTISRDNAKNTVYLQMNSLKPEDTAVYYCAAQHVGHNYYNSGFYYWGQGTQVTVSS", "polyreactivity (PSR sort gate)": "low polyreactivity"}, {"sequence": "QVQLVESGGGLVQAGGSLRLSCAASGLTFIYNAMGWYRQAPGKERELVAAISGNGGDTYYADSVKGRFTISRDNAKNTVYLQMNSLKPEDTAVYYCAADYAYTPITWDEYWGQGTQVTVSS", "polyreactivity (PSR sort gate)": "low polyreactivity"}, {"sequence": "QVQLVESGGGLVQAGGSLRLSCAASGLTFIYYAMGWYRQAPGKERELVAAISVSGGSTYYADSVKGRFTISRDNAKNTVYLQMNSLKPEDTAVYYCAADWFVHIPRYQYSFDYWGQGTQVTVSS", "polyreactivity (PSR sort gate)": "low polyreactivity"}, {"sequence": "QVQLVESGGGLVQAGGSLRLSCAASGLTFKENVMGWYRQAPGKERELVAAISTGASTYYADSVKGRFTISRDNAKNTVYLQMNSLKPEDTAVYYCAKRVTRWYGYWGQGTQVTVSS", "polyreactivity (PSR sort gate)": "high polyreactivity"}, {"sequence": "QVQLVESGGGLVQAGGSLRLSCAASGLTFKKYTIGWYRQAPGKETQLVAVITSGGSTYYADSVKGRFTISRDNAKNTVYLQMNSVKPEDTAVYYGAVKYPELRSWGNYYWGQGTQVTVSS", "polyreactivity (PSR sort gate)": "high polyreactivity"}, {"sequence": "QVQLVESGGGLVQAGGSLRLSCAASGLTFKPYAMVWYRQAPGKEREFVAAISWRSGSTYYADSVKGRFTISRDYEKNTVYLQMNRLKPEDTAVYYCNALYRVFVGTYDFWGQGTHVTVSS", "polyreactivity (PSR sort gate)": "high polyreactivity"}, {"sequence": "QVQLVESGGGLVQAGGSLRLSCAASGLTFKRYAMGWYRQAPGTEREFVAAISAGGASTHYADSVKGRFTISRDNAKNTVYLQMNSLKPEDTAVYYCATDYRTFRPSFGYWGQGTQVTVSS", "polyreactivity (PSR sort gate)": "low polyreactivity"}, {"sequence": "QVQLVESGGGLVQAGGSLRLSCAASGLTFKYYAMGWYRQAPGKERELVAAITSTGGRTYYADSVKGRFTISRDNAKNTVYLQMNSLKPEDTAVYYCAAYYVGSSKYDSWGQGTQVTVSS", "polyreactivity (PSR sort gate)": "low polyreactivity"}, {"sequence": "QVQLVESGGGLVQAGGSLRLSCAASGLTFKYYTMGWYRQAPGKERELVAAISRSGTITYYADSVKGRFTISRDNAKNTVYLQMNSLKPEDTAVYYSNKASTYPSYDYWGHGTQVTVSS", "polyreactivity (PSR sort gate)": "high polyreactivity"}, {"sequence": "QVQLVESGGGLVQAGGSLRLSCAASGLTFKYYTMGWYRQAPGKERELVADISRTGRTSYADSVKGRFTISRDNAKNTDYLQMNSLKPEDTAVYYCNADFYVSGYSLFASIYDYWGQGTQVTVSS", "polyreactivity (PSR sort gate)": "high polyreactivity"}, {"sequence": "QVQLVESGGGLVQAGGSLRLSCAASGLTFLDYAMGWYRQAPGKERELVAAITSGGSTNYADSVKGRFTISRDNAKNTVYLQMNSLKPEDTAVYYCATDLEVSAYDYWGQGTQVTVSS", "polyreactivity (PSR sort gate)": "low polyreactivity"}, {"sequence": "QVQLVESGGGLVQAGGSLRLSCAASGLTFLINAMGWYRQAPGKERELVAAITSSGGSTSYADSVKGRFTISRDNAKYTVYLQMNSLKPEDTAVYYCAADLNAYPQRAYDYWGQGTQVTVSS", "polyreactivity (PSR sort gate)": "low polyreactivity"}, {"sequence": "QVQLVESGGGLVQAGGSLRLSCAASGLTFLPNAMGWYRQAPGKERELVAAITNGGGTNYADSVKGRFTISRDNAKNTVYLQMNSLKPEDTAVYYCNADSTYFGGHDYWGQGTQVTVSS", "polyreactivity (PSR sort gate)": "low polyreactivity"}, {"sequence": "QVQLVESGGGLVQAGGSLRLSCAASGLTFNTSAMGWSRQAPGKEREWVAAITSSGSITYYADSVKGRFTISRDNAKNTVYLQMNSLKPEDTAVYYCAAAVGYYAFGTYPFDDWPYDYWGQGTQVTVSS", "polyreactivity (PSR sort gate)": "high polyreactivity"}, {"sequence": "QVQLVESGGGLVQAGGSLRLSCAASGLTFPRYAMGWYRQAPGKEREFVAGITYSGGSTYYADSVKGRFTISRDNAKNTVYLQMNSLKPEDTAVYYCAATPWSYEYYYWGQGTQVTVSS", "polyreactivity (PSR sort gate)": "low polyreactivity"}, {"sequence": "QVQLVESGGGLVQAGGSLRLSCAASGLTFPYYAMGWYRQAPGTERELVAAISGGGRTYYADSVKGRFTISRDNAKNTVYLQMNSLKPEDTAVYYCAPFHVGRYTGTVTDGYDYWGQGTQVTVSS", "polyreactivity (PSR sort gate)": "high polyreactivity"}, {"sequence": "QVQLVESGGGLVQAGGSLRLSCAASGLTFPYYSMGWYRQAPGKERVLVAAITKSGGSTYADSVKGRFTISRDNAKNTVYLQMNSLKPEDTAVYYCAAGRRKYGTKGRGDYWGQGTQVTVSS", "polyreactivity (PSR sort gate)": "low polyreactivity"}, {"sequence": "QVQLVESGGGLVQAGGSLRLSCAASGLTFPYYVMGWYRQAPGKERELVAAIDDGGGSTYYADSVKGRFTISRDNAKNTVYLQMNSLKPEDTAVYYCAAQVDYLAHYGYWGQGTQVTVSS", "polyreactivity (PSR sort gate)": "low polyreactivity"}, {"sequence": "QVQLVESGGGLVQAGGSLRLSCAASGLTFQSNAMGWSRQAPGKEREFVAAITSGGNTYYADSVKGRFTISRDNAKNTVYLQMNSLKPEDTAVYYCNADYQDEEDDYWGQGTQVTVSS", "polyreactivity (PSR sort gate)": "low polyreactivity"}, {"sequence": "QVQLVESGGGLVQAGGSLRLSCAASGLTFQSYDMGWYRPAPGKERELVAAISRRGGSTYYADSVKGRFTISRDNAKNTVYLQLNSLKPEDTAVYYCAAETYYTYWPYGMGYWGQGTQVTVSS", "polyreactivity (PSR sort gate)": "high polyreactivity"}, {"sequence": "QVQLVESGGGLVQAGGSLRLSCAASGLTFQSYDMGWYRQAPGKERELVAAISRRGGSTYYADSVKGRFTISRDNAKNTVYLQMNSLKPEDTAVYYCAAEYRSWSWRMDYWGQGTQVTVSS", "polyreactivity (PSR sort gate)": "high polyreactivity"}, {"sequence": "QVQLVESGGGLVQAGGSLRLSCAASGLTFQVYAMGWYRQAPGKERELVAGITRGGRTYYADSVKGRFTISRDNAKNTVYLQMNSLKPEDTAVYYCNADAPYGGPSWAKSRYEYWGQGTQVTVSS", "polyreactivity (PSR sort gate)": "low polyreactivity"}, {"sequence": "QVQLVESGGGLVQAGGSLRLSCAASGLTFQWYAMGWYRQAPGKERELVAAISIGGSTNYADSVKGRFTISRDNAKNTVYLQMNSLKPEDTAVYYCNKGSDFFWYDYDYWGQGTQVTVSS", "polyreactivity (PSR sort gate)": "low polyreactivity"}, {"sequence": "QVQLVESGGGLVQAGGSLRLSCAASGLTFQYNAMGWYRQAPGKERELVAANSRSGGRTYYADSVKGRFTISRDNAKNTVYLQLNSLKPEDTAVYYCAARDRSTRSDLTSYSVLYGNYYWGQGTQVTVSS", "polyreactivity (PSR sort gate)": "high polyreactivity"}, {"sequence": "QVQLVESGGGLVQAGGSLRLSCAASGLTFRAYTMGWYRQAPGKERELVAAISRSGGSTYYADSVKGRFTISRDNAKNTVYLQMNSLKPEDTAVYYCAAPGYQTVGMGYWGQGTQVTVSS", "polyreactivity (PSR sort gate)": "high polyreactivity"}, {"sequence": "QVQLVESGGGLVQAGGSLRLSCAASGLTFRDNAMGWYRQAPGKERELVATINSGGSTDYADSVKGRFTISRDNAKNTVYLQMNILKPEDTAVYYCAVYREYYDRGWYSIFYWYDYWGQGTQVTVSS", "polyreactivity (PSR sort gate)": "low polyreactivity"}]}]}
